Where a chain is given by its changes, count along the chain named.

Data on ten molecules can be found in patent publication US20150266969A1.

To fix the notation:
B1: E200 peptide (peptide)
chain: GHNYTTRNILPGLNITC
modifications: not checked
B2: PEP2-42 Fc (Fc fusion, not shown: a dimerising Fc or GST)
chain: EVQLLESGGGLVQPGGSLRLSCAASGFTFDNVEMSWVRQAPGKGLEWVSSIGSKGEDTYYADSVKGRFTISRDNSKNTLYLQMNSLRAEDTAVYYCAQTVNVPEPAFAYWGQGTLVTVSS
B3: PEP2-42-1 Fc (Fc fusion, not shown: a dimerising Fc or GST)
chain: B2 chain with L4M, S53T, D57Y, L86M, S119L
B4: PEP2-2-2 Fc (Fc fusion, not shown: a dimerising Fc or GST)
chain: EVQLLESGGGLVQPGGSLRLSCAASGFTFRNHDMGWVRQAPGKGLEWVSAISGSGGSTYYADSVKGRFTISRDNSKNTLYLQMNSLRAEDTAVYYCAEPKPMDTEFDYRSQGTLVTVSS
B5: PEP2-472-1 Fc (Fc fusion, not shown: a dimerising Fc or GST)
chain: B4 chain with F27Y, R30P, N31M, H32K, S57G
B6: PEP2-47 Fc (Fc fusion, not shown: a dimerising Fc or GST)
chain: B4 chain with R30P, N31M, H32K, K100S, P101H, M102F, T104R, E105P, R109W, S110G
B7: PEP2-47-1 Fc (Fc fusion, not shown: a dimerising Fc or GST)
chain: B4 chain with F27Y, R30P, N31M, H32K, S57G, K100S, P101H, M102F, T104R, E105P
B8: PEP2-247-1 Fc (Fc fusion, not shown: a dimerising Fc or GST)
chain: B4 chain with S57G, K100S, P101H, M102F, T104R, E105P
B9: PEP2-2-1-1 Fc (Fc fusion, not shown: a dimerising Fc or GST)
chain: B4 chain with Q111P
B10: PEP2-247-2 Fc (Fc fusion, not shown: a dimerising Fc or GST)
chain: B4 chain with D62N, K100S, P101H, M102F, T104R, E105P

Sequence of PEP2-4 dAb (chain, as listed by the source): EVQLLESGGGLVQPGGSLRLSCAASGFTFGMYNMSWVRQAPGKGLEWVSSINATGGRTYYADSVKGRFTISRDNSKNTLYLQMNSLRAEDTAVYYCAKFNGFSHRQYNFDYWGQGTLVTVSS

One experiment addresses PEP2-4 dAb. Put plainly: immunohistochemistry on cervical cancer sections, 20 nM PEP2-4 with added free peptide; estimate between no inhibition at 10 uM and clear inhibition at 100 uM.
B1: the concentration for half-maximal inhibition (IC50) is 40 to 50 µM.

The target of a further experiment is E200 peptide. Put plainly: Biacore, PEP2-Fc on E200.
With B2, the Kd came out at 5.5 nM.

Consider B3, for which the Kd stood at 0.12 nM.

On to B4, for which the equilibrium dissociation constant (Kd) was found to be 0.1 nM.

The molecule B5 had a dissociation constant Kd of 0.09 nM.

Molecule B6 gave an equilibrium dissociation constant (Kd) of 7.5 nM.

B7 gave a dissociation constant Kd of 0.11 nM.

In turn, B8 gave a Kd of 0.19 nM.

With B9, the Kd was 0.09 nM.

Regarding B10, the equilibrium dissociation constant (Kd) is 0.45 nM.
